Target: non-glycosylated wild-type PAI-1 (PAI-1-wt) (human) (UniProt P05121)
Sequence of UniProt P05121 (P05121 24-402): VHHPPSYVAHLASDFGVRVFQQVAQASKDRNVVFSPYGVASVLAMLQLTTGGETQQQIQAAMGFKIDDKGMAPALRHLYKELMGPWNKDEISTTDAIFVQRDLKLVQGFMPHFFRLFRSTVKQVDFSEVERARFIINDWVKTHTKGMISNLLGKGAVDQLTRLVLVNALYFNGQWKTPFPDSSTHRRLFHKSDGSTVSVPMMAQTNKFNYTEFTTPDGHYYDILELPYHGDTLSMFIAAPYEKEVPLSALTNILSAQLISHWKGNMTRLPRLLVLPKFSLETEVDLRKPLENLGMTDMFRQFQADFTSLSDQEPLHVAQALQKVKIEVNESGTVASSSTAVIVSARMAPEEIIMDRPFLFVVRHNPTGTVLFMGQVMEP

B1: VHH-s-a93 (Nb93) (VHH)
VHH: QVQLVESGGGLVQPGGSLRLSCAASGFSLDNYAIGWFRQAPGKEREGVSCISSSDGSTYYTDSVEGRFTISRDNAKNTVYLQMNSLKPDDTAVYYCAADYGSSWCTFNGMDYWGQGTQVTVSS
IC50 of inhibition of PAI-1-wt activity, chromogenic plasminogen-coupled assay with tPA (residual tPA activity; pair blocked: PAI-1/tPA), Nb93 1 to 512 nM: 202 nM | maximum inhibition of PAI-1-wt activity, chromogenic plasminogen-coupled assay with tPA (pair blocked: PAI-1/tPA), Nb93 1 to 512 nM: 55%
